Molecular target: hybrid GFP construct containing the protease cleavage sequence SVPSGCG (SEQ ID NO:21) followed by histidine residues (Aequorea victoria (Water jellyfish) (Mesonema victoria)) [GFP: P42212]
Test: cell-based or functional assay

Substance: Pancreatin
- Micrograms of GFP Released by Protease (overnight, IMAC beads): 137 µg
